For data set [1] the following is noted: rats; cited from earlier work.
A short description of data set [2]: Blood concentration profile in rats (1).
Experimental: Blood Concentration Profile in Rats (1)
(§1) At 5 minutes, 1 hour, 6 hours, 24 hours, and 72 hours after administration, blood was collected through the jugular vein under isoflurane anesthesia successively in an amount of 0.3 mL each time, and the tacrolimus concentration in the collected blood was measured.
Data set [3] has as its system rat collagen-induced arthritis. In words: Anti-inflammatory effect for rat collagen-induced arthritis (1). It counts as in vivo. Conditions: 5 mg/kg, q7 d × 4, i.v., DA rats, average score 0-5, footnote: Score 29 d. Here is the method:
Anti-Inflammatory Effect for Rat Collagen-Induced Arthritis (1)
0.3 mg of bovine articular cartilage-derived type II collagen (immunological grade; Collagen Research Center, Ltd.) was intradermally administered on the dorsal side of nine-week old female DA rats (Japan SLC, Inc.), and thereby collagen-induced arthritis was induced in the rats. […] As a control, a non-administered group was provided. Determination of arthritis was made by scoring based on visual inspection.
From the time point after the sensitization with bovine articular cartilage-derived type II collagen, the progress of inflammation in the right hind limb and the left hind limb was monitored. It was determined that the onset of collagen-induced arthritis occurred when reddening was recognized in the toes of the right hind limb or the left hind limb. The extent of arthritis was evaluated in six stages according to the following scores from 0 to 5. […]

For data set [4] the following is noted: rat, in vivo, iv, 5 mg/kg.
Experimental: Blood Concentration Profile in Rats (1)
as §1

Like-named read-outs stand apart in the source and are kept apart here. Marks after values point to notes of the source that are not given here.

The term Tmax denotes the time from dosing to the highest level. Take `C=CC[C@@H]1/C=C(\C)C[C@H](C)C[C@H](OC)[C@H]2O[C@@](O)(C(=O)C(=O)N3CCCC[C@H]3C(=O)O[C@H](/C(C)=C/[C@@H]3CC[C@@H](O)[C@H](OC)C3)[C@H](C)[C@@H](O)CC1=O)[C@H](C)C[C@@H]2OC` [Tacrolimus, tacrolimus]: the “signs caused by intravenous administration” value in data set [1] is listed as “slight respiratory distress, a decrease in locomotor activity, a prone position, stereotyped behavior”. For the same compound, in data set [2] (female SD rats, i.v. once 5 mg/kg, tacrolimus in blood), the Tmax amounted to 5 min. The concentration at 72 h in data set [2] (female, SD, rat, whole blood, iv, 5 mg/kg) turned out to be 0.273 ng/mL.
In general, Cmax refers to the maximum level reached in the sampled fluid or tissue. For “Tacrolimus-Bonded Polyethylene Glycol-αβ-Polyaspartic Acid Block Copolymer [Comparative Example 1]”, in data set [3], the “Arthritis score (29 d)” value is reported as 2.6*. In addition, in data set [4], the AUCinf. was determined as 1050 ng·h/mL, the Cmax came out at 280 ng/mL, the MRTinf. was determined as 11.6 h and the “MRTinf. compared to tacrolimus” value is reported as “prolongation”. Besides, in data set [4], the time of peak concentration (Tmax) stood at 5 min, the T½ came to 9.57 h and the “blood concentration half-life compared to tacrolimus” value is listed as “prolongation”.

The values are drawn from US10945997B2, “Polymer derivative of macrolide immunosuppressant” (Nippon Kayaku Kabushiki Kaisha, priority 2016, dated 2021).
